Experimental data from patent US20100183625A1 (published 2010).
Substitutions are numbered along the chain they refer to.

B1: M207-A04 (Fab, V domains shown)
VH: EVQLLESGGGLVQPGGSLRLSCAASGFTFSHYLMTWVRQAPGKGLEWVSYISPSGGHTIYADSVKGRFTISRDNSKNTLYLQMNSLRAEDTAVYYCARVARGIAARSRTSYFDYWGQGTLVTVSS
VL: DIQMTQSPGTLSLSPGERATLSCRTSQFVNSNYLAWYQQTPGQAPRLLIYGASSRATGIPDRFSGTGYGTDFTLTISRLEPEDYGTYYCQQSSRTPWTFGQGTRVEIK
B2: M209-D02 (Fab, V domains shown)
VH: B1 VH with A104T, Y114D
VL: B1 VL with G42S
B3: M209-H07 (Fab, V domains shown)
VH: B1 VH with S107Q, F112Y
VL: B1 VL with S53D, S54D
B4: M209-B11 (Fab, V domains shown)
VH: B1 VH with F112I, Y114Q
VL: B1 VL
B5: M209-H03 (Fab, V domains shown)
VH: B1 VH with G42S, R101Q, S110T, Y111Q
VL: B1 VL
B6: M209-D12 (Fab, V domains shown)
VH: B1 VH with G42S, R98T, Y114Q
VL: B1 VL
B7: M6-D09 (antibody, V domains shown)
VH: EVQLLESGGGLVQPGGSLRLSCAASGFTFSFYYMVWVRQAPGKGLEWVSVIYPSGGITVYADSVKGRFTISRDNSKNTLYLQMNSLRAEDTAVYYCARDKWAVMPPYYYYAMDVWGQGTTVTVSS
VL: DIQMTQSPSSLSASVSDRVTITCRASQSIRNYLNWYQQKPSKAPNLLIYAASTLQSGVPARFSGSGSGTDFTLTISSLQPEDFATYYCQQLSGYPHTFGQGTKLEIK
notes: HC as printed runs into CH1
B8: M12-B05 (antibody, V domains shown)
VH: EVQLLESGGGLVQPGGSLRLSCAASGFTFSWYTMVWVRQAPGKGLEWVSYIYPSGGATFYADSVKGRFTISRDNSKNTLYLQMNSLRAEDTAVYYCAMGSYDYIWGFYSDHWGQGTLVTVSS
VL: QSALTQPPTVSVSPGQTARITCSGNKLGDKYVAWYQQKPGQSPMLVIYQDTKRPSRVSERFSGSNSANTATLSISGTQALDEADYYCQAWDSSIVIFGGGTRLTVL
B9: M29-D09 (antibody, V domains shown)
VH: B8 VH
VL: B8 VL with R56A, V57I, S58P
B10: M137-E12 (antibody, V domains shown)
VH: EVQLLESGGGLVQPGGSLRLSCAASGFTFSDYRMQWVRQAPGKGLEWVSVIVPSGGNTMYADSVKGRFTISRDNSKNTLYLQMNSLRAEDTAVYYCARGGPGSSIAARPAPTGYYGMDVWGQGTTVTVSS
VL: QSVLIQPPSVSGIPGQRVTISCSGNNSNFGSNTVTWYQQLPGTAPKLLIYSDSRRPSGVPDRFSGSRSDTSASLAISGLQSEDEAEYHCAAWDDSLNGVFGGGTKLTVL
B11: M7-B04 (antibody, V domains shown)
VL: QSALTQPASVSGSPGQSITISCTGTNSDVGNYNLVSWYQQHPGEAPKLLIYEVNKRPSGVSNRFSGSKSGNTASLTISGLQAEDEADYLCCSYAGNRNFYVFGAGTKVTVL
VH: EVQLLESGGGLVQPGGSLRLSCAASGFTFSWYSMVWVRQAPGKGLEWVSSISPSGGLTNYADSVKGRFTISRDNSKNTLYLQMNSLRAEDTAVYYCARHTAARPFYYYYMDVWSKSTTVTVSSASTKGPSVFPLAPSSKS
B12: M76-D01 (antibody, V domains shown)
VH: EVQLLESGGGLVQPGGSLRLSCAASGFTFSFYAMHWVRQAPGKGLEWVSGIVPSGGRTHYADSVKSRFTISRDNSKNTLYLQMNSLRAEDTAVYYCATDSSGSPNPLFDYWGQGTLVTVSS
VL: DIVMTQTPPSLPVNPGEPASISCRSSQSLSDDGNTYLDWYLQRPGQSPQLLIHTLSYRASGVPDRFSGSGSGTDFTLKISRVEAEDVGVYYCMQGTHWPPTFGQGTKVEIK
B13: M10-F10 (antibody, V domains shown)
VH: EVQLLESGGGLVQPGGSLRLSCAASGFTFSFYNMNWVRQAPGKSLEWVSSISPSGGETNYADSVKGRFTISRDNSKNTLYLQMNSLRAEDTAVYYCARGGGAYRNNWWGGFDIWGLGTMVTVSS
VL: DIQMTQSPSSLSASVGDRVTITCRASQSISVYLNWYQHKPGKAPKLLIYGASNLQFGVPSRFSGSGYGTDFTLTISSLQPEDFATYHCQQTFSLFTFGGGTKVEIK
B14: M6-D09 (antibody, V domains shown)
VH: B7 VH
VL: B7 VL
B15: M29-E09 (antibody, V domains shown)
VH: EVQLLESGGGLVQPGGSLRLSCAASGFTFSWYEMGWVRQAPGKGLEWVSSIYSSGGGTMYADSVKGRFTISRDNSKNTLYLQMNSLRAEDTAVYYCARNPQYSGYDRSLSDGAFDIWGQGTMVTVSS
VL: QYELTQPPSVSVSPSQTATITCSGDNLGNKYNSWYQQKPGQSPLLVIYQDTKRPSAIPERFSGSNSGNTAILTISGTQAMDEADYYCQAWDGNVVFGGGTKLTVL
B16: M29-D09 (antibody, V domains shown)
VH: B8 VH
VL: B8 VL with R56A, V57I, S58P
notes: HC as printed runs into CH1

target: T1, human plasma kallikrein (human, UniProt P03952 20-390; P03952 391-638); test: cell-based or functional assay
T1 sequence (P03952 20-390, chain 1 of 2): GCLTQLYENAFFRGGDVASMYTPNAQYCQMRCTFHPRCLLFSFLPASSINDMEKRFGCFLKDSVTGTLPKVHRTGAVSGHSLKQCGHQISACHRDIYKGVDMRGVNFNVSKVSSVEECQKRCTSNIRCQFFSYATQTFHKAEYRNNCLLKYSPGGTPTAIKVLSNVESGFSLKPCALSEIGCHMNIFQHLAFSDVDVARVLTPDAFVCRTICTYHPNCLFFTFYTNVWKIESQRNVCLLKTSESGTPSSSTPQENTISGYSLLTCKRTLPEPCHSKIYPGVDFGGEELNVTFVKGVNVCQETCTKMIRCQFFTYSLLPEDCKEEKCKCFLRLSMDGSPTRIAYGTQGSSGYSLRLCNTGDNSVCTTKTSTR
T1 sequence (P03952 391-638, chain 2 of 2): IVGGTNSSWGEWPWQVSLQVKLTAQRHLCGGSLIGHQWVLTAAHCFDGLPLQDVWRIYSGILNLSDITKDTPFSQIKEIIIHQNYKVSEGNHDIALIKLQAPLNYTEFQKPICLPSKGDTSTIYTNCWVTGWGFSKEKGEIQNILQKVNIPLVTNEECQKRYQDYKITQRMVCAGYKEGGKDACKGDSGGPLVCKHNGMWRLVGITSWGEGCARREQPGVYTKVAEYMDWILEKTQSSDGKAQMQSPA

Row | % inhibition at 10 nM | Binder
1 | 90.9% | B1
2 | 74.7% | B2
3 | 76.1% | B3
4 | 87.3% | B4
5 | 82.6% | B5
6 | 85.4% | B6

target: T2, mouse plasma kallikrein (mouse, UniProt P26262 20-638); test: apparent Ki (Ki,app), mouse pKal
T2 construct: mature; Source of the mouse enzyme used for Ki,app is not described; also called mouse pKal
T2 sequence (P26262 20-638 limits assumed): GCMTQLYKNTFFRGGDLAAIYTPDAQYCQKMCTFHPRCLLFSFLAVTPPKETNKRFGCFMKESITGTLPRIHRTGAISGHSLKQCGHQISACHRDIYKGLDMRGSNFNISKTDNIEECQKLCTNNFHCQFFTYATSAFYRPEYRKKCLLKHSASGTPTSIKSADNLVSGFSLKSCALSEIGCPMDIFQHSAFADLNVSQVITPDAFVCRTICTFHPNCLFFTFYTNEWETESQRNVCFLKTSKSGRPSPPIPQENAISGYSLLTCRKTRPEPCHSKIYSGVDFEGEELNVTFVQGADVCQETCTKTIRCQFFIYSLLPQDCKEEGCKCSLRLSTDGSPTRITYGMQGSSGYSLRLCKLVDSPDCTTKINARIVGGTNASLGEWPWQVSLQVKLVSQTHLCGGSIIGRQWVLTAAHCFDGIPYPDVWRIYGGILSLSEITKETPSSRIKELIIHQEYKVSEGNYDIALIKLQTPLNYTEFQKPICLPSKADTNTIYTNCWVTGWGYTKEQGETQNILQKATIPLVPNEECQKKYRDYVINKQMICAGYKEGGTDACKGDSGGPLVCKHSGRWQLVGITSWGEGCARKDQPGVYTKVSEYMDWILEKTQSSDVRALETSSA

Row | Ki | Binder
7 | 3.9 nM | B7

target: T3, human plasma kallikrein (human, UniProt P03952 20-390; P03952 391-638); test: ELISA; signal on biotinylated plasma kallikrein divided by signal on streptavidin background
T3 construct: also called pKal; human pKal
Excerpt: Abbreviations used: “T/B” is the ELISA signal obtained using of the “target” (biotinylated plasma kallikrein) divided by the ELISA signal of the “background” (streptavidin); both of which were coated on microtiter plates. “nd” is not determined. The symbol “q” refers to the amber suppressible stop codon (TAG), which is translated as glutamine (Q) in strains of E. coli such as the TG1 cells that were used to express the Fab fragments.
T3 sequence (P03952 20-390, chain 1 of 2): as the sequence (P03952 20-390, chain 1 of 2) above
T3 sequence (P03952 391-638, chain 2 of 2): as the sequence (P03952 391-638, chain 2 of 2) above

Row | ELISA (T/B) | Binder
8 | 38.4 T/B ratio | B8
9 | 47.5 T/B ratio | B9
10 | 4.5 T/B ratio | B10
11 | 4.1 T/B ratio | B11
12 | 11.2 T/B ratio | B12
13 | 39.2 T/B ratio | B13
14 | 39.9 T/B ratio | B14
15 | 28.8 T/B ratio | B15

target: T3, human plasma kallikrein; test: apparent Ki (Ki,app), inhibition of human pKal activity

Row | Ki | Binder
16 | 4.9 nM | B8
17 | 0.7 nM | B9
18 | 79 nM | B10
19 | 54 nM | B11
20 | < 100 nM | B12
21 | < 100 nM | B13
22 | 5.9 nM | B14
23 | 11 nM | B15

target: T1, human plasma kallikrein; test: apparent Ki (Ki,app), human pKal

Row | Ki | Binder
24 | 0.7 nM | B16
25 | 5.9 nM | B7
